The values that follow are results of earlier work, collected in publication PMC8555654.

The target in the data set is PlexA2 (Mus musculus) (UniProt P70207).
Sequence of PlexA2 (Mus musculus) (P70207 35-1237): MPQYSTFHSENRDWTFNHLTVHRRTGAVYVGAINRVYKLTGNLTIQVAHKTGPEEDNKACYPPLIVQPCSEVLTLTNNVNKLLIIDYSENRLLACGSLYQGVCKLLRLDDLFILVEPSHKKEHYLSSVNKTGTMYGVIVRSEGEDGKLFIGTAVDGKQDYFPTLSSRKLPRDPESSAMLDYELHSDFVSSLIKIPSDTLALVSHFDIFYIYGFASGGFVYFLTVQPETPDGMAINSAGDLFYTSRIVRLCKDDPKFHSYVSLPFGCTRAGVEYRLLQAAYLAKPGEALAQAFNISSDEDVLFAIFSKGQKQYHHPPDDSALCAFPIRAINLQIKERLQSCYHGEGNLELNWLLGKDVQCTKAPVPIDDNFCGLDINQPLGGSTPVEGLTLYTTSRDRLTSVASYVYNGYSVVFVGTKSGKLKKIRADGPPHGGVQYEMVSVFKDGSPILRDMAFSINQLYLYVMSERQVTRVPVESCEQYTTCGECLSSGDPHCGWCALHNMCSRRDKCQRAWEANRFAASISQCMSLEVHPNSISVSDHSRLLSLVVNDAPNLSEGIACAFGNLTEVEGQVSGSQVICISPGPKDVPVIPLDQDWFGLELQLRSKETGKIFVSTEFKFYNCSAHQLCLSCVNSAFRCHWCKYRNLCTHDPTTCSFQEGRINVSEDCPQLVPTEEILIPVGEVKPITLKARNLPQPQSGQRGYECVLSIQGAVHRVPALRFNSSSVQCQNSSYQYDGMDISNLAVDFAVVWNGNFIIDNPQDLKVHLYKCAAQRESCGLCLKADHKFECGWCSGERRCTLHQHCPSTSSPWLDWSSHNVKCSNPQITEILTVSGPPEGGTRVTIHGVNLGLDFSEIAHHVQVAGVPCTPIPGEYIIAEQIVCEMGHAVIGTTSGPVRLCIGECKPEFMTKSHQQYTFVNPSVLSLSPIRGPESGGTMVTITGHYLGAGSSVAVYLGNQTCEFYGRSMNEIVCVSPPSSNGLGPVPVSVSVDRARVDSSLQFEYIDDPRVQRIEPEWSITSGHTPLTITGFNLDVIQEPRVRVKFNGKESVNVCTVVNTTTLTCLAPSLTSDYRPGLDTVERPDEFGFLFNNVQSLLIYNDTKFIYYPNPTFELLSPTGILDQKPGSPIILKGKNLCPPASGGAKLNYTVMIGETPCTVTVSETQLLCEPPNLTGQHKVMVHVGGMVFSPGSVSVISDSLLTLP

As a reminder, the Kd is the constant that tells how readily two partners part at equilibrium. For the substance Npn1 (from UniProt P97333), the Kd was 66 µM.
